One block for each binder: values may come before it.
Legend:
[1] = biological target: T1, Z1Z2 (two Ig domains at the N terminus of the titin molecule) (human); experiment: complex formation by mixing in urea and dialysis, then co-purification
T1 construct: also called polypeptide A
T1 chain: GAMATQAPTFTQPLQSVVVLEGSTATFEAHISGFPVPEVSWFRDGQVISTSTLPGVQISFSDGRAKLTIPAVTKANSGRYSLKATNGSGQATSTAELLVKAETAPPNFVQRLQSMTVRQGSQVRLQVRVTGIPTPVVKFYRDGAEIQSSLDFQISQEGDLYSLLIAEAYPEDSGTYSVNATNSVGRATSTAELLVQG

[2] = biological target: T1, Z1Z2 (two Ig domains at the N terminus …); experiment: SDS-PAGE and Native-PAGE of the purified complex
GLZ = biological target: T2, GLZ (human); experiment: SDS-PAGE and Native-PAGE of the purified complex
T2 construct: Two GLZ chains stand in the GLZ/TeN complex; End residue 260 from claim 16; also called GLP-1(8G) attached to the N terminus of Z1Z2
T2 chain: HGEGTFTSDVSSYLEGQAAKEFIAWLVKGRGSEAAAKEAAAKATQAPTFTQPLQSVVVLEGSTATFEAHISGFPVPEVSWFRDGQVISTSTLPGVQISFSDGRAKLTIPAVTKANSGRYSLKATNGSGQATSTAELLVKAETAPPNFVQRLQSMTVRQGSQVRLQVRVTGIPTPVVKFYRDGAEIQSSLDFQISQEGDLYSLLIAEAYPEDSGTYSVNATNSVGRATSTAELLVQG

ZSST = biological target: T3, ZSST (human); experiment: SDS-PAGE and Native-PAGE of the purified complex
T3 construct: Two ZSST chains stand in the ZSST/TeN complex; End residue 237 from claim 18; also called SST inserted into a loop of the Z1Z2 molecule
T3 chain: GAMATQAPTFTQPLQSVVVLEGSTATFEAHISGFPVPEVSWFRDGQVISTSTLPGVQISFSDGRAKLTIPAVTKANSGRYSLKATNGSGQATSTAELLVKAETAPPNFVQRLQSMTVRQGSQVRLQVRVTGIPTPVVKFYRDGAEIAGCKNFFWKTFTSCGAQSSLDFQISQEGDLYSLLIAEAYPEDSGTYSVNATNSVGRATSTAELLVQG

binding result [1]: binds
B1: GLTe (other)
chain: HAEGTFTSDVSSYLEGQAAKEFIAWLVKGRGGGGGSGGGGSGGGGSAMATSELSSEVSEENSERREAFWAEWKDLTLSTRPEEGSSLHEEDTQRHETYHQQGQSQVLVQRSPWLMMRMGILGRGLQEYQLPYQRVLP
notes: TEV site printed as between positions 25 and 26, in conflict with GLP-1 at 25-55; claim 15 gives 25-161; also called GLP-1 (7-37) attached via (GGGGS)3 to the N terminus of TeN

binding result [2]: binds
B2: SSTe (other)
chain: GAMATSELSSEVSEENSEAGCKNFFWKTFTSCGGRREAFWAEWKDLTLSTRPEEGSSLHEEDTQRHETYHQQGQSQVLVQRSPWLMMRMGILGRGLQEYQLPYQRVLP
notes: claim 17 gives 25-132; also called SST inserted into the Loop (LT1) of a TeN mutant

binding result (GLZ): binds
binding result (ZSST): binds
B3: TeN (N terminus of Telethonin, Cys mutated to Ser) (other)
chain: GAMATSELSSEVSEENSERREAFWAEWKDLTLSTRPEEGSSLHEEDTQRHETYHQQGQSQVLVQRSPWLMMRMGILGRGLQEYQLPYQRVLP
notes: also called polypeptide B

Reference: patent US20170360949A1 (TIANJIN INSTITUTE OF INDUSTRIAL BIOTECHNOLOGY CHINESE …, published 2017)
